Columns and labels:
[1] = molecular target: WT1 RMF (…)/HLA-A2 complex on cells (human); test: flow cytometry, primary AML cells (FIG. 18 shows sample 92C per paragraph 796) stained with PE-conjugated isotype control mouse IgG at 3 µg/ml; unstained 124
[2] = molecular target: HLA-A2 with endogenous peptides on HLA-A2-positive cells not pulsed with peptide (SKLY-16, normal cells of HLA-A2+ donors) (human); test: flow cytometry, PBMCs of an HLA-A2 positive healthy donor, CD33 against isotype control
[3] = molecular target: HLA-A2 with endogenous peptides on HLA-A2-positive cells not pulsed with peptide (SKLY-16, normal cells of HLA-A2+ donors) (human); test: flow cytometry, PBMCs of an HLA-A2 positive healthy donor, CD19 against isotype control
[4] = molecular target: HLA-A2 with endogenous peptides on HLA-A2-positive cells not pulsed with peptide (SKLY-16, normal cells of HLA-A2+ donors) (human); test: flow cytometry, whole blood of an HLA-A2 positive healthy donor, neutrophil gate, CD15 against isotype control

| MFI [1] | % of PBMCs CD33+ and isotype+ (upper right quadrant) [2] [%] | % of PBMCs CD33- and isotype+ (lower right quadrant) [2] [%] | % of PBMCs CD19+ and isotype+ (upper right quadrant) [3] [%] | % of PBMCs CD19- and isotype+ (lower right quadrant) [3] [%] | % of gated neutrophils CD15+ and isotype+ (upper right quadrant) [4] [%] | % of gated neutrophils CD15- and isotype+ (lower right quadrant) [4] [%] | Substance |
| --- | --- | --- | --- | --- | --- | --- | --- |
| 372 |  |  |  |  |  |  | Iso. (antibody) |
|  | 0.03 | 1.07 | 0.91 | 0.05 | 0.04 | 0.02 | Isotype (antibody) |
